B1: NCKAP1 (protein, UniProt Q9Y2A7 2-1128, looked up)
Nck-associated protein 1: SRSVLQPSQQKLAEKLTILNDRGVGMLTRLYNIKKACGDPKAKPSYLIDKNLESAVKFIVRKFPAVETRNNNQQLAQLQKEKSEILKNLALYYFTFVDVMEFKDHVCELLNTIDVCQVFFDITVNFDLTKNYLDLIITYTTLMILLSRIEERKAIIGLYNYAHEMTHGASDREYPRLGQMIVDYENPLKKMMEEFVPHSKSLSDALISLQMVYPRRNLSADQWRNAQLLSLISAPSTMLNPAQSDTMPCEYLSLDAMEKWIIFGFILCHGILNTDATALNLWKLALQSSSCLSLFRDEVFHIHKAAEDLFVNIRGYNKRINDIRECKEAAVSHAGSMHRERRKFLRSALKELATVLSDQPGLLGPKALFVFMALSFARDEIIWLLRHADNMPKKSADDFIDKHIAELIFYMEELRAHVRKYGPVMQRYYVQYLSGFDAVVLNELVQNLSVCPEDESIIMSSFVNTMTSLSVKQVEDGEVFDFRGMRLDWFRLQAYTSVSKASLGLADHRELGKMMNTIIFHTKMVDSLVEMLVETSDLSIFCFYSRAFEKMFQQCLELPSQSRYSIAFPLLCTHFMSCTHELCPEERHHIGDRSLSLCNMFLDEMAKQARNLITDICTEQCTLSDQLLPKHCAKTISQAVNKKSKKQTGKKGEPEREKPGVESMRKNRLVVTNLDKLHTALSELCFSINYVPNMVVWEHTFTPREYLTSHLEIRFTKSIVGMTMYNQATQEIAKPSELLTSVRAYMTVLQSIENYVQIDITRVFNNVLLQQTQHLDSHGEPTITSLYTNWYLETLLRQVSNGHIAYFPAMKAFVNLPTENELTFNAEEYSDISEMRSLSELLGPYGMKFLSESLMWHISSQVAELKKLVVENVDVLTQMRTSFDKPDQMAALFKRLSSVDSVLKRMTIIGVILSFRSLAQEALRDVLSYHIPFLVSSIEDFKDHIPRETDMKVAMNVYELSSAAGLPCEIDPALVVALSSQKSENISPEEEYKIACLLMVFVAVSLPTLASNVMSQYSPAIEGHCNNIHCLAKAINQIAAALFTIHKGSIEDRLKEFLALASSSLLKIGQETDKTTTRNRESVYLLLDMIVQESPFLTMDLLESCFPYVLLRNAYHAVYKQSVTSSA
B2: ZFP36L2 (protein, UniProt P47974 1-494, looked up)
mRNA decay activator protein …: MSTTLLSAFYDVDFLCKTEKSLANLNLNNMLDKKAVGTPVAAAPSSGFAPGFLRRHSASNLHALAHPAPSPGSCSPKFPGAANGSSCGSAAAGGPTSYGTLKEPSGGGGTALLNKENKFRDRSFSENGDRSQHLLHLQQQQKGGGGSQINSTRYKTELCRPFEESGTCKYGEKCQFAHGFHELRSLTRHPKYKTELCRTFHTIGFCPYGPRCHFIHNADERRPAPSGGASGDLRAFGTRDALHLGFPREPRPKLHHSLSFSGFPSGHHQPPGGLESPLLLDSPTSRTPPPPSCSSASSCSSSASSCSSASAASTPSGAPTCCASAAAAAAAALLYGTGGAEDLLAPGAPCAACSSASCANNAFAFGPELSSLITPLAIQTHNFAAVAAAAYYRSQQQQQQQGLAPPAQPPAPPSATLPAGAAAPPSPPFSFQLPRRLSDSPVFDAPPSPPDSLSDRDSYLSGSLSSGSLSGSESPSLDPGRRLPIFSRLSISDD
B3: CCDC6 (protein, UniProt Q16204 2-474, looked up)
Coiled-coil domain-containing …: ADSASESDTDGAGGNSSSSAAMQSSCSSTSGGGGGGGGGGGGGKSGGIVISPFRLEELTNRLASLQQENKVLKIELETYKLKCKALQEENRDLRKASVTIQARAEQEEEFISNTLFKKIQALQKEKETLAVNYEKEEEFLTNELSRKLMQLQHEKAELEQHLEQEQEFQVNKLMKKIKKLENDTISKQLTLEQLRREKIDLENTLEQEQEALVNRLWKRMDKLEAEKRILQEKLDQPVSAPPSPRDISMEIDSPENMMRHIRFLKNEVERLKKQLRAAQLQHSEKMAQYLEEERHMREENLRLQRKLQREMERREALCRQLSESESSLEMDDERYFNEMSAQGLRPRTVSSPIPYTPSPSSSRPISPGLSYASHTVGFTPPTSLTRAGMSYYNSPGLHVQHMGTSHGITRPSPRRSNSPDKFKRPTPPPSPNTQTPVQPPPPPPPPPMQPTVPSAATSQPTPSQHSAHPSSQP
B4: RAPGEF2 (protein, UniProt Q9Y4G8 1-1499, looked up)
Rap guanine nucleotide …: MKPLAIPANHGVMGQQEKHSLPADFTKLHLTDSLHPQVTHVSSSHSGCSITSDSGSSSLSDIYQATESEAGDMDLSGLPETAVDSEDDDDEEDIERASDPLMSRDIVRDCLEKDPIDRTDDDIEQLLEFMHQLPAFANMTMSVRRELCAVMVFAVVERAGTIVLNDGEELDSWSVILNGSVEVTYPDGKAEILCMGNSFGVSPTMDKEYMKGVMRTKVDDCQFVCIAQQDYCRILNQVEKNMQKVEEEGEIVMVKEHRELDRTGTRKGHIVIKGTSERLTMHLVEEHSVVDPTFIEDFLLTYRTFLSSPMEVGKKLLEWFNDPSLRDKVTRVVLLWVNNHFNDFEGDPAMTRFLEEFENNLEREKMGGHLRLLNIACAAKAKRRLMTLTKPSREAPLPFILLGGSEKGFGIFVDSVDSGSKATEAGLKRGDQILEVNGQNFENIQLSKAMEILRNNTHLSITVKTNLFVFKELLTRLSEEKRNGAPHLPKIGDIKKASRYSIPDLAVDVEQVIGLEKVNKKSKANTVGGRNKLKKILDKTRISILPQKPYNDIGIGQSQDDSIVGLRQTKHIPTALPVSGTLSSSNPDLLQSHHRILDFSATPDLPDQVLRVFKADQQSRYIMISKDTTAKEVVIQAIREFAVTATPDQYSLCEVSVTPEGVIKQRRLPDQLSKLADRIQLSGRYYLKNNMETETLCSDEDAQELLRESQISLLQLSTVEVATQLSMRNFELFRNIEPTEYIDDLFKLRSKTSCANLKRFEEVINQETFWVASEILRETNQLKRMKIIKHFIKIALHCRECKNFNSMFAIISGLNLAPVARLRTTWEKLPNKYEKLFQDLQDLFDPSRNMAKYRNVLNSQNLQPPIIPLFPVIKKDLTFLHEGNDSKVDGLVNFEKLRMIAKEIRHVGRMASVNMDPALMFRTRKKKWRSLGSLSQGSTNATVLDVAQTGGHKKRVRRSSFLNAKKLYEDAQMARKVKQYLSNLELEMDEESLQTLSLQCEPATNTLPKNPGDKKPVKSETSPVAPRAGSQQKAQSLPQPQQQPPPAHKINQGLQVPAVSLYPSRKKVPVKDLPPFGINSPQALKKILSLSEEGSLERHKKQAEDTISNASSQLSSPPTSPQSSPRKGYTLAPSGTVDNFSDSGHSEISSRSSIVSNSSFDSVPVSLHDERRQRHSVSIVETNLGMGRMERRTMIEPDQYSLGSYAPMSEGRGLYATATVISSPSTEELSQDQGDRASLDAADSGRGSWTSCSSGSHDNIQTIQHQRSWETLPFGHTHFDYSGDPAGLWASSSHMDQIMFSDHSTKYNRQNQSRESLEQAQSRASWASSTGYWGEDSEGDTGTIKRRGGKDVSIEAESSSLTSVTTEETKPVPMPAHIAVASSTTKGLIARKEGRYREPPPTPPGYIGIPITDFPEGHSHPARKPPDYNVALQRSRMVARSSDTAGPSSVQQPHGHPTSSRPVNKPQWHKPNESDPRLAPYQSQGFSTEEDEDEQVSAV
B5: IRS2 (protein, UniProt Q9Y4H2 1-1338, looked up)
Insulin receptor substrate 2: MASPPRHGPPGPASGDGPNLNNNNNNNNHSVRKCGYLRKQKHGHKRFFVLRGPGAGGDEATAGGGSAPQPPRLEYYESEKKWRSKAGAPKRVIALDCCLNINKRADAKHKYLIALYTKDEYFAVAAENEQEQEGWYRALTDLVSEGRAAAGDAPPAAAPAASCSASLPGALGGSAGAAGAEDSYGLVAPATAAYREVWQVNLKPKGLGQSKNLTGVYRLCLSARTIGFVKLNCEQPSVTLQLMNIRRCGHSDSFFFIEVGRSAVTGPGELWMQADDSVVAQNIHETILEAMKALKELFEFRPRSKSQSSGSSATHPISVPGARRHHHLVNLPPSQTGLVRRSRTDSLAATPPAAKCSSCRVRTASEGDGGAAAGAAAAGARPVSVAGSPLSPGPVRAPLSRSHTLSGGCGGRGSKVALLPAGGALQHSRSMSMPVAHSPPAATSPGSLSSSSGHGSGSYPPPPGPHPPLPHPLHHGPGQRPSSGSASASGSPSDPGFMSLDEYGSSPGDLRAFCSHRSNTPESIAETPPARDGGGGGEFYGYMTMDRPLSHCGRSYRRVSGDAAQDLDRGLRKRTYSLTTPARQRPVPQPSSASLDEYTLMRATFSGSAGRLCPSCPASSPKVAYHPYPEDYGDIEIGSHRSSSSNLGADDGYMPMTPGAALAGSGSGSCRSDDYMPMSPASVSAPKQILQPRAAAAAAAAVPSAGPAGPAPTSAAGRTFPASGGGYKASSPAESSPEDSGYMRMWCGSKLSMEHADGKLLPNGDYLNVSPSDAVTTGTPPDFFSAALHPGGEPLRGVPGCCYSSLPRSYKAPYTCGGDSDQYVLMSSPVGRILEEERLEPQATPGPSQAASAFGAGPTQPPHPVVPSPVRPSGGRPEGFLGQRGRAVRPTRLSLEGLPSLPSMHEYPLPPEPKSPGEYINIDFGEPGARLSPPAPPLLASAASSSSLLSASSPASSLGSGTPGTSSDSRQRSPLSDYMNLDFSSPKSPKPGAPSGHPVGSLDGLLSPEASSPYPPLPPRPSASPSSSLQPPPPPPAPGELYRLPPASAVATAQGPGAASSLSSDTGDNGDYTEMAFGVAATPPQPIAAPPKPEAARVASPTSGVKRLSLMEQVSGVEAFLQASQPPDPHRGAKVIRADPQGGRRRHSSETFSSTTTVTPVSPSFAHNPKRHNSASVENVSLRKSSEGGVGVGPGGGDEPPTSPRQLQPAPPLAPQGRPWTPGQPGGLVGCPGSGGSPMRRETSAGFQNGLNYIAIDVREEPGLPPQPQPPPPPLPQPGDKSSWGRTRSLGGLISAVGVGSTGGGCGGPGPGALPPANTYASIDFLSHHLKEATIVKE

tested on: GFP-14-3-3β and its binding proteins; experiment: GFP-14-3-3β co-IP with LC-MS/MS label-free quantification, untreated versus PP1c-treated; design: species or system human; details: pairwise comparison PP1 vs untreated, student's t-test; 3 replicates each; LC-MS/MS label-free quantification

| Molecule | Difference (log2), PP1 vs untreated [log2] |
| --- | --- |
| B1 | -3.667 |
| B2 | -3.391 |
| B3 | -3.654 |
| B4 | -3.585 |
| B5 | -3.665 |

tested on: GFP-14-3-3β; experiment: GFP-14-3-3β co-IP with LC-MS/MS, untreated GFP-14-3-3β versus GFP control (14-3-3 interactome); assay type: binding, human; details: pairwise comparison untreated GFP-14-3-3β vs GFP, student's t-test; 3 replicates each; LC-MS/MS label-free quantification

| Molecule | Difference (log2), untreated vs GFP [log2] |
| --- | --- |
| B1 | 2.589 |
| B2 | 3.556 |
| B3 | 4.515 |
| B4 | 2.788 |
| B5 | 7.914 |

— article PMC7367873, “Dissecting the sequence determinants for dephosphorylation by the catalytic subunits of phosphatases PP1 and PP2A” (Nature Communications, 2020)
